Source: patent US20220380463A1 (Adimab, published 2022)
Residue numbers refer to the chain shown, from its start.

T1: Cynomolgus CD3εδ Fc heterodimer (Cy CD3ε Fc / CD3δ Fc-HIS) (cynomolgus, UniProt Q95LI8 22-100)
T1 chain 1: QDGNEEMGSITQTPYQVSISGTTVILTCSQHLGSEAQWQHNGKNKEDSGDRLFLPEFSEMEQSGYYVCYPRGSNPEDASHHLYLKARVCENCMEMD
T1 chain 2: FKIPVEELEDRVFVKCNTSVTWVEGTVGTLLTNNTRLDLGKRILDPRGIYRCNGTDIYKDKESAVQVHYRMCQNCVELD

B1: SAD10318_P03_A08 (ADI-57283) (antibody, V domains shown)
VH: QVQLVQSGAEVKKPGASVKVSCKASGFNIKDYYMHWVRQAPGQRLEWMGWIDLENANTIYDAKFQGRVTITRDTSASTAYMELSSLRSEDTAVYYCARDAYGRYHYDHWGQGTLVTVSS
VL: DIVMTQSPDSLAVSLGERATINCKSSQSLLNARTGHNHLAWYQQKPGQPPKLLIYWASTRESGVPDRFSGSGSGTDFTLTISSLQAEDVAVYYCKQSYSRRTFGGGTKVEIK
notes: IgG; also called Ab195
B2: SAD10318_P03_B08 (ADI-57284) (antibody, V domains shown)
VH: B1 VH with A100H, G102H, H105F, H108V
VL: B1 VL with R33H, H38Y, K95H, R100H
notes: IgG; also called Ab196
B3: SAD10318_P03_G08 (ADI-57285) (antibody, V domains shown)
VH: B1 VH with A100H, G102H, H105F, H108V
VL: B1 VL with N31H, H36K, Y98H, R100H
notes: IgG; also called Ab201
B4: SAD10318_P03_F09 (ADI-57286) (antibody, V domains shown)
VH: B1 VH with R103H, H108V
VL: B1 VL with R33H, T34P, H36K, H38Y, K95H, S99H
notes: IgG; also called Ab208
B5: SAD10318_P03_G09 (ADI-57287) (antibody, V domains shown)
VH: B1 VH with A100H, R103H, H105F, H108V
VL: B1 VL with R33H, H38Y, K95H, R100H
notes: IgG; also called Ab209
B6: SAD10318_P04_D10 (ADI-48613) (antibody, V domains shown)
VH: B1 VH with R103H, H108V
VL: B1 VL with N31H, H36K
notes: IgG; also called Ab211
B7: SAD10318_P04_E10 (ADI-57288) (antibody, V domains shown)
VH: B1 VH
VL: DIVMTQSPDSLAVSLGERATINCKSSQSLLNARTGHNYLAWYQQKPGQPPKLLISGSTRESGVPDRFSGSGSGTDFTLTISSLQAEDVAVYYCHQSYHRRTFGGGTKVEIK
notes: IgG; also called Ab212
B8: SAD10318_P04_F10 (ADI-57289) (antibody, V domains shown)
VH: B1 VH with G102H, H108V
VL: B1 VL with G35H, H36K
notes: IgG; also called Ab213
B9: SAD10318_P04_H10 (ADI-57290) (antibody, V domains shown)
VH: B1 VH with A100H, R103H, H105F, H108V
VL: B1 VL with R33H, H36K
notes: IgG; also called Ab214
B10: SAD10318_P04_E11 (ADI-57292) (antibody, V domains shown)
VH: B1 VH with R103H, H105F
VL: B1 VL with K95H, R100H
notes: IgG; also called Ab220
B11: SAD10318_P04_F11 (ADI-57293) (antibody, V domains shown)
VH: B1 VH with I29T, Y101H, H108V
VL: B1 VL
notes: IgG; also called Ab221
B12: SAD10318_P04_G11 (ADI-57294) (antibody, V domains shown)
VH: B1 VH with T74A, G102H, H108V
VL: B1 VL with R33H, H36K, Y98H
notes: IgG; also called Ab222
B13: SAD10318_P04_G12 (ADI-57296) (antibody, V domains shown)
VH: B1 VH with R103H, H108V
VL: B1 VL with R33H, H36K
notes: IgG; also called Ab227
B14: SAD10318_P04_H12 (ADI-57297) (antibody, V domains shown)
VH: B1 VH with Y101H, H105F, Y106H, H108V
VL: B1 VL with R33H, H36K, K95H, R100H
notes: IgG; also called Ab228
B15: SAD10319_P01_A01 (ADI-48619) (antibody, V domains shown)
VH: QVQLVQSGAEVKKPGASVKVSCKASGYTFASYAMHWVRQAPGQRLEWMGWINPDTGNTVYSQKFQGRVTITRDTSASTAYMELSSLRSEDTAVYYCARDAYHHYFYDVWGQGTLVTVSS
VL: B1 VL with H36K, H38Y
notes: IgG; also called Ab229
B16: SAD10319_P01_C01 (ADI-48621 and ADI-48636) (antibody, V domains shown)
VH: B15 VH with A30T, S31D, A33D, N52D, P53A, D54G, N57L, V59K, A100H, H102G
VL: B1 VL with H36K, H38Y
notes: IgG; also called Ab230
B17: SAD10319_P01_D01 (ADI-48622) (antibody, V domains shown)
VH: B15 VH with A30K, A33D, N52D, P53A, D54G, V59K, H102G, H103R
VL: B1 VL with H36K, H38Y
notes: IgG; also called Ab231
B18: SAD10319_P01_E01 (ADI-57298) (antibody, V domains shown)
VH: B15 VH with A30D, S31A, N52D, P53A, D54G, N57A, V59A, A100H, H102G
VL: B1 VL with H36K, H38Y
notes: IgG; also called Ab232
B19: SAD10319_P01_F01 (ADI-57299) (antibody, V domains shown)
VH: B15 VH with A30Q, A33D, E46Q, D54T, H102G, H103R
VL: B1 VL with H36K, H38Y
notes: IgG; also called Ab233
B20: SAD10319_P01_G01 (ADI-57300) (antibody, V domains shown)
VH: QVQLVQSGAEVKKPGASVKVSCKASGYTFTSADMHWVRQAPGQRLQPMGWINAGTGATKYSQKFQGRVTITRDTSANTAYMELSSLRSEDTAVYYCARDAYGRYFYDVWGQGTLVTVSS
VL: B1 VL with H36K, H38Y
notes: IgG; ADI-57300 is also printed for Ab28; also called Ab234
B21: SAD10319_P01_A02 (ADI-57301) (antibody, V domains shown)
VH: B15 VH with A30T, S31E, A33E, D54L, V59K, A100H, H102G
VL: B1 VL with H36K, H38Y
notes: IgG; also called Ab236
B22: SAD10319_P01_C02 (ADI-57302) (antibody, V domains shown)
VH: B15 VH with A30T, S31E, A33N, D54L, V59L
VL: B1 VL with H36K, H38Y
notes: IgG; also called Ab238
B23: SAD10319_P01_D02 (ADI-57303) (antibody, V domains shown)
VH: B20 VH with S31E, A32Y, L45P, Q46E, P47W, N52D, K59V, N77S, V108H
VL: B1 VL with H36K, H38Y
notes: IgG; also called Ab239
B24: SAD10319_P01_F02 (ADI-48624) (antibody, V domains shown)
VH: QVQLVQSGAEVKKPGASVKVSCKASGYTFESYDMHWVRQAPGQRLEWMGWIDAGTGNTKYSQKFQGRVTITADESTSTAYMELSSLRSEDTAVYYCARDHYGHYFYDVWGQGTLVTVSS
VL: B1 VL with H36K, H38Y
notes: IgG; also called Ab241
B25: SAD10319_P01_H02 (ADI-48625) (antibody, V domains shown)
VH: B15 VH with A30T, S31D, D54S, N57A
VL: B1 VL with H36K, H38Y
notes: IgG; also called Ab242
B26: SAD10319_P01_B03 (ADI-57305) (antibody, V domains shown)
VH: B15 VH with A30N, S31A, N57A, V59T
VL: B1 VL with H36K, H38Y
notes: IgG; also called Ab243
B27: SAD10319_P01_C03 (ADI-48626) (antibody, V domains shown)
VH: B15 VH with A30T, S31D, A33D, N52D, D54Y, N57A, V59K, H102G
VL: B1 VL with H36K, H38Y
notes: IgG; also called Ab244
B28: SAD10319_P01_D03 (ADI-57306) (antibody, V domains shown)
VH: B15 VH with A30T, A33N, N52D, P53A, D54G, N57A, V59H
VL: B1 VL with H36K, H38Y
notes: IgG; also called Ab245
B29: SAD10319_P02_A04 (ADI-57307) (antibody, V domains shown)
VH: B15 VH with A30D, A33S, N57A, V59D, A100H, H102G
VL: B1 VL with H36K, H38Y
notes: IgG; also called Ab247
B30: SAD10319_P02_B04 (ADI-57308) (antibody, V domains shown)
VH: B15 VH with S31D, D54G, N57S, V59K, H102G, V108H
VL: B1 VL with H36K, H38Y
notes: IgG; also called Ab249
B31: SAD10319_P02_C04 (ADI-57309) (antibody, V domains shown)
VH: B15 VH with A30E, A33S, D54A, N57A, V59D
VL: B1 VL with H36K, H38Y
notes: IgG; also called Ab250
B32: SAD10319_P02_D04 (ADI-57310) (antibody, V domains shown)
VH: B15 VH with A30T, E46Q, N52D, P53A, D54G, V59Y, Y101H, H102G
VL: B1 VL with H36K, H38Y
notes: IgG; also called Ab251
B33: SAD10319_P02_H04 (ADI-57313) (antibody, V domains shown)
VH: B15 VH with A30T, N57A, V59K, Y101H, H102G
VL: B1 VL with H36K, H38Y
notes: IgG; also called Ab254
B34: SAD10319_P02_A05 (ADI-48629) (antibody, V domains shown)
VH: B15 VH with A30D, D54N, N57A, V59T, A100H, H102G
VL: B1 VL with H36K, H38Y
notes: IgG; also called Ab255
B35: SAD10319_P02_B05 (ADI-57314) (antibody, V domains shown)
VH: B15 VH with S31D, W50S, P53A, D54G, V59Y, H102G
VL: B1 VL with H36K, H38Y
notes: IgG; also called Ab256
B36: SAD10319_P02_C05 (ADI-57315) (antibody, V domains shown)
VH: B15 VH with A30T, S31D, A33N, D54L, N57T, V59K
VL: B1 VL with H36K, H38Y
notes: IgG; also called Ab257
B37: SAD10319_P02_D05 (ADI-57316) (antibody, V domains shown)
VH: B15 VH with A30N, S31D, E46A, N52D, P53A, D54G, V59Y, Y101H, H102G
VL: B1 VL with H36K, H38Y
notes: IgG; also called Ab258
B38: SAD10319_P02_F05 (ADI-57317) (antibody, V domains shown)
VH: B15 VH with A30N, S31N, N52D, P53A, D54G, V59D, Y101H, H103R
VL: B1 VL with H36K, H38Y
notes: IgG; also called Ab5
B39: SAD10319_P02_G05 (ADI-57318) (antibody, V domains shown)
VH: B15 VH with A30T, S31Q, A33T, W50S, N52D, P53A, D54G, N57A, V59K
VL: B1 VL with H36K, H38Y
notes: IgG; also called Ab6
B40: SAD10319_P02_H05 (ADI-57319) (antibody, V domains shown)
VH: B15 VH with A30T, S31Q, A33S, P53A, D54G, N57D, A100H, Y101H, H102G, H103R
VL: B1 VL with L30F, H36K, H38Y
notes: IgG; also called Ab7
B41: SAD10319_P02_B06 (ADI-57321) (antibody, V domains shown)
VH: B15 VH with A30T, A33T, L45P, W50S, P53A, D54G, N57F, V59D, A100H, H102G
VL: B1 VL with H36K, H38Y
notes: IgG; also called Ab9
B42: SAD10319_P02_D06 (ADI-48631) (antibody, V domains shown)
VH: B15 VH with A30T, S31D, P53A, D54G, N57A, V59I
VL: B1 VL with H36K, H38Y
notes: IgG; also called Ab11

Target: T1, Cynomolgus CD3εδ Fc heterodimer (Cy …)
Experiment: BLI (Octet), IgG on AHC sensor, pH 6.0
B1 gave a koff of 0.006 s⁻¹. For B2, the koff was 0.00303 s⁻¹. B3 gave a koff of 0.00544 s⁻¹. B4 gave a koff of 0.00139 s⁻¹. For B5, the koff was 0.00559 s⁻¹. For B6, the koff was 0.00251 s⁻¹. B7 showed a koff of 0.00245 s⁻¹. Binder B8 has a koff of 0.00436 s⁻¹. Binder B9 has a koff of 0.00284 s⁻¹. Binder B10 has a koff of 0.00256 s⁻¹. B11 showed a koff of 0.00183 s⁻¹. For B12, the koff was 0.00215 s⁻¹. B13 was tested, and the koff was 0.0025 s⁻¹. B14 was tested, and the koff was 0.00254 s⁻¹. Binder B15 has a koff of 0.0328 s⁻¹. B16 was tested, and the koff was 0.00402 s⁻¹. B17 showed a koff of 0.00946 s⁻¹. B18 gave a koff of 0.0281 s⁻¹. In the case of B19, the koff is reported as 0.0179 s⁻¹. B20 gave a koff of 0.00249 s⁻¹. B21 was tested, and the koff was 0.0165 s⁻¹. For B22, the koff was 0.0251 s⁻¹. B23 gave a koff of 0.00686 s⁻¹. For B24, the koff was 0.00522 s⁻¹. B25 showed a koff of 0.0314 s⁻¹. For B26, the koff was 0.0245 s⁻¹. Binder B27 has a koff of 0.0196 s⁻¹. For B28, the koff was 0.00221 s⁻¹. With B29 the koff was 0.0284 s⁻¹. In the case of B30, the koff is reported as 0.0203 s⁻¹. Binder B31 has a koff of 0.0215 s⁻¹. B32 showed a koff of 0.00322 s⁻¹. B33 showed a koff of 0.00313 s⁻¹. With B34 the koff was 0.0269 s⁻¹. For B35, the koff was 0.0388 s⁻¹. B36 gave a koff of 0.00697 s⁻¹. B37 gave a koff of 0.00296 s⁻¹. Work on B38 yielded a koff of 0.0262 s⁻¹. For B39, the koff was 0.00475 s⁻¹. B40 showed a koff of 0.019 s⁻¹. Work on B41 yielded a koff of 0.00531 s⁻¹. With B42 the koff was 0.0212 s⁻¹.
